Data as given in patent US20220275097A1 (SHANGHAITECH UNIVERSITY, published 2022).

T1: extracellular domain of the human leptin receptor (human, UniProt P48357 22-839)
T1 construct: extracellular domain; a tag is not mentioned for the ELISA and cross-linking experiments; also called hECD; recombinant leptin receptor extracellular domain
T1 sequence (looked up): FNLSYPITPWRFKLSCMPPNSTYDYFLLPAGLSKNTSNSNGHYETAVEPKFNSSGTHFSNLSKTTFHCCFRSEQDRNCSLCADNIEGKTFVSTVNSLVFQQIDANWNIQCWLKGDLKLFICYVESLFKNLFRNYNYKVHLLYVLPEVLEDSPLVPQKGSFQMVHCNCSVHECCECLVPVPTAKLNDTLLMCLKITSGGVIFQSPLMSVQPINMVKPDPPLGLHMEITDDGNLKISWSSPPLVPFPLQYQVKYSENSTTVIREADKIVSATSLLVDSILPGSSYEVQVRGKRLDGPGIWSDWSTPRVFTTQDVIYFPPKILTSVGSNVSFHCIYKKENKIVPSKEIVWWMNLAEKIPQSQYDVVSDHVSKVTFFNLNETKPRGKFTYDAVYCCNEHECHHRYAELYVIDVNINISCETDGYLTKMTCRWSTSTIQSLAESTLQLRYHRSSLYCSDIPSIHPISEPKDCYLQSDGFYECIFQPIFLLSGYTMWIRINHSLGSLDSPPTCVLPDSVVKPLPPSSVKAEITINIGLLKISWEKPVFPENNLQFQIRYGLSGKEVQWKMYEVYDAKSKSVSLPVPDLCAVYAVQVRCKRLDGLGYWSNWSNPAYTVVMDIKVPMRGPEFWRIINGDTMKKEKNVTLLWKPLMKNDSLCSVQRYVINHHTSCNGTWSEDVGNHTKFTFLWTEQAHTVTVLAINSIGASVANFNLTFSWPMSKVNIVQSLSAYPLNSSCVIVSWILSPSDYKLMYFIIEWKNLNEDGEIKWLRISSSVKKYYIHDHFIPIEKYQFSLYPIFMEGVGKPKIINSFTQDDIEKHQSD

T2: N terminal domain (NTD) of the leptin receptor extracellular domain, F22-Q121 (human, UniProt P48357 22-121)
T2 sequence: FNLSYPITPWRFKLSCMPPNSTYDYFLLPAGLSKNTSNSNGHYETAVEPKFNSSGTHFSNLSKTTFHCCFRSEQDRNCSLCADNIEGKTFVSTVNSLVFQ

T3: first cytokine receptor homology domain (CRH1) of the leptin receptor extracellular domain, Q122-V333 (human, UniProt P48357 122-333)
T3 construct: Expressed and purified subdomain
T3 sequence: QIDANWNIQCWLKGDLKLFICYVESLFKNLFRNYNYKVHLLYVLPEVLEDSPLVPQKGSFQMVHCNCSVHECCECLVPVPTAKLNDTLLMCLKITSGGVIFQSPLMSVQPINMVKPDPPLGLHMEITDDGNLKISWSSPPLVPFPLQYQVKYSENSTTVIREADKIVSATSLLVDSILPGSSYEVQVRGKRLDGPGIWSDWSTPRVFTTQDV

T4: immunoglobulin-like domain (IgD) of the leptin receptor extracellular domain, I334-V427 (human, UniProt P48357 334-427)
T4 construct: Expressed and purified subdomain
T4 sequence: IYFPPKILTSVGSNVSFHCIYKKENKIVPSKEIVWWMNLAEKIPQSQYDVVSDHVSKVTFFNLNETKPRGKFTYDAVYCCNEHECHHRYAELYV

T5: fibronectin type III domains (FNIII) of the leptin receptor extracellular domain, I636-D839 (human, UniProt P48357 636-839)
T5 construct: Expressed and purified subdomain
T5 sequence: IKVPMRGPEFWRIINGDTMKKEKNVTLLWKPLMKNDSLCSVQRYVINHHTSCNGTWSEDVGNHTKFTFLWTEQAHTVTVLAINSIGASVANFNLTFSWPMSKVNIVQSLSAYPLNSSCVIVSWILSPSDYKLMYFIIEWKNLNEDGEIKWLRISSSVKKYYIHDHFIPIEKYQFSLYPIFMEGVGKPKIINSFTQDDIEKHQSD


Experiments:
[1] = target: T1, extracellular domain of the human …; experiment: SPR, Biacore T200; His-tagged leptin receptor ECD amine-coupled on a CM5 chip, binder as analyte
Procedure: The SPR binding assays were performed using the Biacore T200™ (GE Healthcare). […] All manipulations were performed as described in the user guide of the manufacturer. The analysis of the results were processed in BIA evaluation Software™.

[2] = target: T1, extracellular domain of the human …; experiment: SPR; leptin receptor ECD immobilized, antibody as analyte
[3] = target: T2, N terminal domain (NTD) of the leptin …; experiment: ELISA of S2H6 on purified subdomains of the leptin receptor extracellular domain, OD405; antibody concentration not given
From the text: (§1) To test ability if the antibody to bind these domains, these subdomain were used in an ELISA-based biding assay.

[4] = target: T3, first cytokine receptor homology domain …; experiment: as above
From the text: as §1

[5] = target: T4, immunoglobulin-like domain (IgD) of the …; experiment: as above
From the text: as §1

[6] = target: T5, fibronectin type III domains (FNIII) of …; experiment: as above
From the text: as §1

Row | Binder | Kd [1] [nM] | koff [1] [s⁻¹] | kon [1] [M⁻¹ s⁻¹] | Kd [2] [nM] | koff [2] [s⁻¹] | kon [2] [M⁻¹ s⁻¹] | binding result [3] | binding result [4] | binding result [5] | binding result [6]
1 | S1scAb06 (antibody, V domains shown, also called S1scAb6; 51scAb06) VH: QVQLVESGGGVVQPGRSLRLSCAASGFTFSSYGMHWVRQAPGKGLEWVAVISYDGSNKYYADSVKGRFTISRDNSKNTLYLQMNSLRAEDTAVYYCAKSLRNSFDYWGQGTLVTVSS VL: EIVLTQSPGTLSLSPGERATLSCRASQSVSSNYLAWYQQKPGQAPRLLIYGASSRPTGIPDRFSGSGSGTDFTLTISRLEPEDFAVYYCQQYAASPLTFGGGTKLEIK | 7.47 | 0.0516 | 6.91e+06 |  |  |  |  |  |  | 
2 | S2H7 (antibody, V domains shown, also called SC2H7) VH: QVQLLQSGGGVVQPGRSLRLSCAASGFTFSSYGMHWVRQAPGKGLEWVAVISYDGSNKYYADSVKGRFTISRDNSKNTLYLQMNSLRAEDTAVYYCATRYENYFSTWGQGTLVTVSS VL: EIVLTQSPGTLSLSPGERATLSCRASQSVSSNYLAWYQQKPGQAPRLLIYGASSRPTGIPDRFSGSGSGTDFTLTISRLEPEDFAVYYCQQYAASPLTFGGGTKLEIK |  |  |  | 0.639 | 0.000171 | 268000 |  |  |  | 
3 | S2H5 (antibody, V domains shown, also called SC2H5) VH: QVQLLQSGGGVVQPGRSLRLSCAASGFTFSSYGMHWVRQAPGKGLEWVAVISYDGSNKYYADSVKGRFTISRDNSKNTLYLQMNSLRAEDTAVYYCASRYENYFSLWGQGTLVTVSS VL: EIVLTQSPGTLSLSPGERATLSCRASQSVSSNYLAWYQQKPGQAPRLLIYGASSRPTGIPDRFSGSGSGTDFTLTISRLEPEDFAVYYCQQYAASPLTFGGGTKLEIK |  |  |  | 0.626 | 0.000164 | 262000 |  |  |  | 
4 | S2H1 (antibody, V domains shown, also called SC2H1) VH: QVQLLQSGGGVVQPGRSLRLSCAASGFTFSSYGMHWVRQAPGKGLEWVAVISYDGSNKYYADSVKGRFTISRDNSKNTLYLQMNSLRAEDTAVYYCASLYENYFSLWGQGTLVTVSS VL: EIVLTQSPGTLSLSPGERATLSCRASQSVSSNYLAWYQQKPGQAPRLLIYGASSRPTGIPDRFSGSGSGTDFTLTISRLEPEDFAVYYCQQYAASPLTFGGGTKLEIK |  |  |  | 0.579 | 0.000271 | 468000 |  |  |  | 
5 | S2H3 (antibody, V domains shown, also called SC2H3) VH: QVQLLQSGGGVVQPGRSLRLSCAASGFTFSSYGMHWVRQAPGKGLEWVAVISYDGSNKYYADSVKGRFTISRDNSKNTLYLQMNSLRAEDTAVYYCAGVRENYFTYWGQGTLVTVSS VL: EIVLTQSPGTLSLSPGERATLSCRASQSVSSNYLAWYQQKPGQAPRLLIYGASSRPTGIPDRFSGSGSGTDFTLTISRLEPEDFAVYYCQQYAASPLTFGGGTKLEIK |  |  |  | 0.429 | 0.0002 | 466000 |  |  |  | 

Further lines, results first:

Row | Kd [1] [nM] | koff [1] [s⁻¹] | kon [1] [M⁻¹ s⁻¹] | Kd [2] [nM] | koff [2] [s⁻¹] | kon [2] [M⁻¹ s⁻¹] | binding result [3] | binding result [4] | binding result [5] | binding result [6] | Binder
6 |  |  |  | 0.355 | 0.000119 | 336000 |  |  |  |  | S2H2 (antibody, V domains shown, also called SC2H2; 52H2) VH: QVQLLQSGGGVVQPGRSLRLSCAASGFTFSSYGMHWVRQAPGKGLEWVAVISYDGSNKYYADSVKGRFTISRDNSKNTLYLQMNSLRAEDTAVYYCATFRENYFEYWGQGTLVTVSS VL: EIVLTQSPGTLSLSPGERATLSCRASQSVSSNYLAWYQQKPGQAPRLLIYGASSRPTGIPDRFSGSGSGTDFTLTISRLEPEDFAVYYCQQYAASPLTFGGGTKLEIK
7 | 0.39 | 0.000308 | 786000 | 0.39 | 0.000308 | 786000 | no binding | no binding | no binding | no binding | S2H6 (antibody, V domains shown, also called SC2H6) VH: QVQLLQSGGGVVQPGRSLRLSCAASGFTFSSYGMHWVRQAPGKGLEWVAVISYDGSNKYYADSVKGRFTISRDNSKNTLYLQMNSLRAEDTAVYYCASFQENYFTYWGQGTLVTVSS VL: EIVLTQSPGTLSLSPGERATLSCRASQSVSSNYLAWYQQKPGQAPRLLIYGASSRPTGIPDRFSGSGSGTDFTLTISRLEPEDFAVYYCQQYAASPLTFGGGTKLEIK
